From publication PMC8225859

Biological target: Low-density lipoprotein receptor-related protein 1 (LRP1) (mouse (endogenous in gonadal fat tissue))

B1: Apolipoprotein A4 (APOA4) in gonadal fat tissue of WT mice injected with recombinant mouse APOA4 (natural protein)
chain: EVTSDQVANVVWDYFTQLSNNAKEAVEQFQKTDVTQQLSTLFQDKLGDASTYADGVHNKLVPFVVQLSGHLAQETERVKEEIKKELEDLRDRMMPHANKVTQTFGENMQKLQEHLKPYAVDLQDQINTQTQEMKLQLTPYIQRMQTTIKENVDNLHTSMMPLATNLKDKFNRNMEELKGHLTPRANELKATIDQNLEDLRRSLAPLTVGVQEKLNHQMEGLAFQMKKNAEELQTKVSAKIDQLQKNLAPLVEDVQSKVKGNTEGLQKSLEDLNRQLEQQVEEFRRTVEPMGEMFNKALVQQLEQFRQQLGPNSGEVESHLSFLEKSLREKVNSFMSTLEKKGSPDQPQALPLPEQAQEQAQEQAQEQVQPKPLES
glucose uptake in 3T3-L1 mature adipocytes treated with 0, 0.5, 1, 2 uM r-m-APOA4 for 1 h; percent increase against buffer (~22% at 0.5 uM, ~34% at 1 uM, ~44% at 2 uM): 44%
